# T1: FcγRIIb (human, UniProt P31994 43-217)
# T1 construct: extracellular domain; also called FcgRIIb; 2b
# T1 sequence (looked up): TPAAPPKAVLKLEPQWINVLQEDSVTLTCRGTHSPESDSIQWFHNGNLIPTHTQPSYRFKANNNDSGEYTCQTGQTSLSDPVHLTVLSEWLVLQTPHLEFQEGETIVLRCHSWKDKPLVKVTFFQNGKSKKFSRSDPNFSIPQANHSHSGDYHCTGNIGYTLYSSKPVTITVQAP
# T2: FcγRIIa R (human FcγRIIa, allotype R, Arg at position 131), extracellular domain with C-terminal His tag (human, UniProt P12318 34-217)
# T2 construct: extracellular domain; expressed in FreeStyle293 cells; analyte in Biacore; also called 2aR; FcgRIIa R
# T2 sequence (looked up): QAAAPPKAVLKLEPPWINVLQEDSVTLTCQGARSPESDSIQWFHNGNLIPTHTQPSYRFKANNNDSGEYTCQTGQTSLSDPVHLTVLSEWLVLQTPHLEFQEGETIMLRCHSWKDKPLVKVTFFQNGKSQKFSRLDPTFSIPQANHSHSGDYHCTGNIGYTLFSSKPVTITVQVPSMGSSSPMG
# Assays:
# FcγRIa [1] = molecular target: T3, FcγRIa (human, UniProt P12314 16-292); test: SPR (Biacore), relative to GpH7-A5/GpH7-B3/GpL16-k0 = 100
# T3 construct: extracellular domain; also called FcgRI; FcgRIa
# Protocol: (§1) The heterodimerized antibodies He Abs in which one of the H chains was introduced with an alteration were assayed for their binding activities to each activating FcγR and inhibitory FcγR according to the method described in Example 4. […] The activating FcγRs in FIGS. 26, 27, 28, and 29 are FcγRIa, FcγRIIa (R), FcγRIIa (H), and FcγRIIIa, respectively.
# (§2) Analysis of interaction between objective antibody and the FcγR was carried out using Biacore T100 (GE Healthcare). HBS-EP+ (GE Healthcare) was used as the running buffer, and the measurement temperature was set to 25° C. Chips produced by immobilizing the antigen peptide by the amine coupling method to a Series S Sencor Chip CM5 (GE Healthcare), or alternatively, chips produced by allowing preliminarily biotinylated antigen peptides to interact with and immobilize onto a Series S Sensor Chip SA (certified) (GE Healthcare) were used. Antibodies of interest were captured onto an antigen peptide-immobilized chip, and allowed to interact to each FcγR diluted with running buffer. To regenerate and repeatedly use the chip, the antibodies captured on the chip were washed off by reacting 10 mM glycine-HCl, pH 1.5.
# FcγRIIb = molecular target: T1, FcγRIIb; test: as above
# Protocol: as §1, §2
# FcγRIa [2] = molecular target: T3, FcγRIa; test: SPR (Biacore); He/Con_1a (FcgRIa) divided by He/Con_2b (FcgRIIb)
# Protocol: as §1, §2
# [3] = molecular target: T2, FcγRIIa R (human FcγRIIa, allotype R, …); test: SPR (Biacore), relative binding vs GpH7-A5/GpH7-B3/GpL16-k0
# Protocol: as §2
# The FcγR-binding activity of each antibody was assessed primarily using as an indicator the FcγR-binding activity and dissociation constant for FcγR.
# T3 sequence (P12314 16-292): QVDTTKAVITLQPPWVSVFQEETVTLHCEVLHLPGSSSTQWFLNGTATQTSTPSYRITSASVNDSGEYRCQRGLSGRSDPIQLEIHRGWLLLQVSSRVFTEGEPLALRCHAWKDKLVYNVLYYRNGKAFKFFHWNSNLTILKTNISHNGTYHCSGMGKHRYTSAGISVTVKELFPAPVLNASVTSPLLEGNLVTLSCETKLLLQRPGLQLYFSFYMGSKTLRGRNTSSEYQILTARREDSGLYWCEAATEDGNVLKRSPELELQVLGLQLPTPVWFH
Binder,He/Con_1a (Ia binding) (FcγRIa [1]),He/Con_2b (IIb binding) (FcγRIIb),Ia/IIb He_1a/2b (FcγRIa [2]),He/Con_2aR [3]
"GpH7-A5/GpH7-B3 variant Y300_01G/GpL16-k0 (antibody, human IgG1, kappa, heterodimerized IgG1, one H chain mutated; also called He Ab) heavy 1: not shown heavy 2: not shown light: DIVMTQSPLSLPVTPGEPASISCQASESLVHSNRNTYLHWYLQKPGQSPQLLIYKVSNRFSGVPDRFSGSGSGTDFTLKISRVEAEDVGVYYCSQNTHVPPTFGQGTKVEIERTVAAPSVFIFPPSDEQLKSGTASVVCLLNNFYPREAKVQWKVDNALQSGNSQESVTEQDSKDSTYSLSSTLTLSKADYEKHKVYACEVTHQGLSSPVTKSFNRGEC",116 relative (control = 100),48.4 relative (control = 100),2.4,
"GpH7-A5/GpH7-B3 variant A327_05P/GpL16-k0 (antibody, human IgG1, kappa, heterodimerized IgG1, one H chain mutated; also called He Ab) heavy 1: not shown heavy 2: not shown light: DIVMTQSPLSLPVTPGEPASISCQASESLVHSNRNTYLHWYLQKPGQSPQLLIYKVSNRFSGVPDRFSGSGSGTDFTLKISRVEAEDVGVYYCSQNTHVPPTFGQGTKVEIERTVAAPSVFIFPPSDEQLKSGTASVVCLLNNFYPREAKVQWKVDNALQSGNSQESVTEQDSKDSTYSLSSTLTLSKADYEKHKVYACEVTHQGLSSPVTKSFNRGEC",99.3 relative (control = 100),69.3 relative (control = 100),1.43,
"GpH7-A5/GpH7-B3 variant A327_15Y/GpL16-k0 (antibody, human IgG1, kappa, heterodimerized IgG1, one H chain mutated; also called He Ab) heavy 1: not shown heavy 2: not shown light: DIVMTQSPLSLPVTPGEPASISCQASESLVHSNRNTYLHWYLQKPGQSPQLLIYKVSNRFSGVPDRFSGSGSGTDFTLKISRVEAEDVGVYYCSQNTHVPPTFGQGTKVEIERTVAAPSVFIFPPSDEQLKSGTASVVCLLNNFYPREAKVQWKVDNALQSGNSQESVTEQDSKDSTYSLSSTLTLSKADYEKHKVYACEVTHQGLSSPVTKSFNRGEC",96.3 relative (control = 100),60.8 relative (control = 100),1.58,
"GpH7-A5/GpH7-B3 variant A327_19Q/GpL16-k0 (antibody, human IgG1, kappa, heterodimerized IgG1, one H chain mutated; also called He Ab) heavy 1: not shown heavy 2: not shown light: DIVMTQSPLSLPVTPGEPASISCQASESLVHSNRNTYLHWYLQKPGQSPQLLIYKVSNRFSGVPDRFSGSGSGTDFTLKISRVEAEDVGVYYCSQNTHVPPTFGQGTKVEIERTVAAPSVFIFPPSDEQLKSGTASVVCLLNNFYPREAKVQWKVDNALQSGNSQESVTEQDSKDSTYSLSSTLTLSKADYEKHKVYACEVTHQGLSSPVTKSFNRGEC",96.2 relative (control = 100),54.2 relative (control = 100),1.78,
"GpH7-A5/GpH7-B3 variant N325_02A/GpL16-k0 (antibody, human IgG1, kappa, heterodimerized IgG1, one H chain mutated; also called He Ab) heavy 1: not shown heavy 2: not shown light: DIVMTQSPLSLPVTPGEPASISCQASESLVHSNRNTYLHWYLQKPGQSPQLLIYKVSNRFSGVPDRFSGSGSGTDFTLKISRVEAEDVGVYYCSQNTHVPPTFGQGTKVEIERTVAAPSVFIFPPSDEQLKSGTASVVCLLNNFYPREAKVQWKVDNALQSGNSQESVTEQDSKDSTYSLSSTLTLSKADYEKHKVYACEVTHQGLSSPVTKSFNRGEC",96.8 relative (control = 100),64.4 relative (control = 100),1.5,
"GpH7-A5/GpH7-B3 variant A327_11K/GpL16-k0 (antibody, human IgG1, kappa, heterodimerized IgG1, one H chain mutated; also called He Ab) heavy 1: not shown heavy 2: not shown light: DIVMTQSPLSLPVTPGEPASISCQASESLVHSNRNTYLHWYLQKPGQSPQLLIYKVSNRFSGVPDRFSGSGSGTDFTLKISRVEAEDVGVYYCSQNTHVPPTFGQGTKVEIERTVAAPSVFIFPPSDEQLKSGTASVVCLLNNFYPREAKVQWKVDNALQSGNSQESVTEQDSKDSTYSLSSTLTLSKADYEKHKVYACEVTHQGLSSPVTKSFNRGEC",86.1 relative (control = 100),12.5 relative (control = 100),6.87,
"GpH7-A5/GpH7-B3 variant Y296_18N/GpL16-k0 (antibody, human IgG1, kappa, heterodimerized antibody, mutation in one H chain only; also called He Ab) heavy 1: not shown heavy 2: not shown light: DIVMTQSPLSLPVTPGEPASISCQASESLVHSNRNTYLHWYLQKPGQSPQLLIYKVSNRFSGVPDRFSGSGSGTDFTLKISRVEAEDVGVYYCSQNTHVPPTFGQGTKVEIERTVAAPSVFIFPPSDEQLKSGTASVVCLLNNFYPREAKVQWKVDNALQSGNSQESVTEQDSKDSTYSLSSTLTLSKADYEKHKVYACEVTHQGLSSPVTKSFNRGEC",,,,"104 relative, control = 100"
"GpH7-A5/GpH7-B3 variant Y296_19Q/GpL16-k0 (antibody, human IgG1, kappa, heterodimerized antibody, mutation in one H chain only; also called He Ab) heavy 1: not shown heavy 2: not shown light: DIVMTQSPLSLPVTPGEPASISCQASESLVHSNRNTYLHWYLQKPGQSPQLLIYKVSNRFSGVPDRFSGSGSGTDFTLKISRVEAEDVGVYYCSQNTHVPPTFGQGTKVEIERTVAAPSVFIFPPSDEQLKSGTASVVCLLNNFYPREAKVQWKVDNALQSGNSQESVTEQDSKDSTYSLSSTLTLSKADYEKHKVYACEVTHQGLSSPVTKSFNRGEC",,,,"102 relative, control = 100"
"GpH7-A5/GpH7-B3 variant A327_04F/GpL16-k0 (antibody, human IgG1, kappa, heterodimerized IgG1, one H chain mutated; also called He Ab) heavy 1: not shown heavy 2: not shown light: DIVMTQSPLSLPVTPGEPASISCQASESLVHSNRNTYLHWYLQKPGQSPQLLIYKVSNRFSGVPDRFSGSGSGTDFTLKISRVEAEDVGVYYCSQNTHVPPTFGQGTKVEIERTVAAPSVFIFPPSDEQLKSGTASVVCLLNNFYPREAKVQWKVDNALQSGNSQESVTEQDSKDSTYSLSSTLTLSKADYEKHKVYACEVTHQGLSSPVTKSFNRGEC",99.1 relative (control = 100),63.7 relative (control = 100),1.56,
"GpH7-A5/GpH7-B3 variant Y300_18N/GpL16-k0 (antibody, human IgG1, kappa, heterodimerized antibody, mutation in one H chain only; also called He Ab) heavy 1: not shown heavy 2: not shown light: DIVMTQSPLSLPVTPGEPASISCQASESLVHSNRNTYLHWYLQKPGQSPQLLIYKVSNRFSGVPDRFSGSGSGTDFTLKISRVEAEDVGVYYCSQNTHVPPTFGQGTKVEIERTVAAPSVFIFPPSDEQLKSGTASVVCLLNNFYPREAKVQWKVDNALQSGNSQESVTEQDSKDSTYSLSSTLTLSKADYEKHKVYACEVTHQGLSSPVTKSFNRGEC",,,,"100 relative, control = 100"
"GpH7-A5/GpH7-B3 variant A327_08L/GpL16-k0 (antibody, human IgG1, kappa, heterodimerized IgG1, one H chain mutated; also called He Ab) heavy 1: not shown heavy 2: not shown light: DIVMTQSPLSLPVTPGEPASISCQASESLVHSNRNTYLHWYLQKPGQSPQLLIYKVSNRFSGVPDRFSGSGSGTDFTLKISRVEAEDVGVYYCSQNTHVPPTFGQGTKVEIERTVAAPSVFIFPPSDEQLKSGTASVVCLLNNFYPREAKVQWKVDNALQSGNSQESVTEQDSKDSTYSLSSTLTLSKADYEKHKVYACEVTHQGLSSPVTKSFNRGEC",98.6 relative (control = 100),63.1 relative (control = 100),1.56,
"GpH7-A5/GpH7-B3 variant A327_06M/GpL16-k0 (antibody, human IgG1, kappa, heterodimerized IgG1, one H chain mutated; also called He Ab) heavy 1: not shown heavy 2: not shown light: DIVMTQSPLSLPVTPGEPASISCQASESLVHSNRNTYLHWYLQKPGQSPQLLIYKVSNRFSGVPDRFSGSGSGTDFTLKISRVEAEDVGVYYCSQNTHVPPTFGQGTKVEIERTVAAPSVFIFPPSDEQLKSGTASVVCLLNNFYPREAKVQWKVDNALQSGNSQESVTEQDSKDSTYSLSSTLTLSKADYEKHKVYACEVTHQGLSSPVTKSFNRGEC",103 relative (control = 100),59.5 relative (control = 100),1.74,
"GpH7-A5/GpH7-B3 variant A327_16H/GpL16-k0 (antibody, human IgG1, kappa, heterodimerized IgG1, one H chain mutated; also called He Ab) heavy 1: not shown heavy 2: not shown light: DIVMTQSPLSLPVTPGEPASISCQASESLVHSNRNTYLHWYLQKPGQSPQLLIYKVSNRFSGVPDRFSGSGSGTDFTLKISRVEAEDVGVYYCSQNTHVPPTFGQGTKVEIERTVAAPSVFIFPPSDEQLKSGTASVVCLLNNFYPREAKVQWKVDNALQSGNSQESVTEQDSKDSTYSLSSTLTLSKADYEKHKVYACEVTHQGLSSPVTKSFNRGEC",96.5 relative (control = 100),63.5 relative (control = 100),1.52,
"GpH7-A5/GpH7-B3 variant A327_13S/GpL16-k0 (antibody, human IgG1, kappa, heterodimerized IgG1, one H chain mutated; also called He Ab) heavy 1: not shown heavy 2: not shown light: DIVMTQSPLSLPVTPGEPASISCQASESLVHSNRNTYLHWYLQKPGQSPQLLIYKVSNRFSGVPDRFSGSGSGTDFTLKISRVEAEDVGVYYCSQNTHVPPTFGQGTKVEIERTVAAPSVFIFPPSDEQLKSGTASVVCLLNNFYPREAKVQWKVDNALQSGNSQESVTEQDSKDSTYSLSSTLTLSKADYEKHKVYACEVTHQGLSSPVTKSFNRGEC",102 relative (control = 100),79.5 relative (control = 100),1.29,
"GpH7-A5/GpH7-B3 variant A327_12R/GpL16-k0 (antibody, human IgG1, kappa, heterodimerized IgG1, one H chain mutated; also called He Ab) heavy 1: not shown heavy 2: not shown light: DIVMTQSPLSLPVTPGEPASISCQASESLVHSNRNTYLHWYLQKPGQSPQLLIYKVSNRFSGVPDRFSGSGSGTDFTLKISRVEAEDVGVYYCSQNTHVPPTFGQGTKVEIERTVAAPSVFIFPPSDEQLKSGTASVVCLLNNFYPREAKVQWKVDNALQSGNSQESVTEQDSKDSTYSLSSTLTLSKADYEKHKVYACEVTHQGLSSPVTKSFNRGEC",86.7 relative (control = 100),,9.64,
"GpH7-A5/GpH7-B3 variant Y296_20W/GpL16-k0 (antibody, human IgG1, kappa, heterodimerized antibody, mutation in one H chain only; also called He Ab) heavy 1: not shown heavy 2: not shown light: DIVMTQSPLSLPVTPGEPASISCQASESLVHSNRNTYLHWYLQKPGQSPQLLIYKVSNRFSGVPDRFSGSGSGTDFTLKISRVEAEDVGVYYCSQNTHVPPTFGQGTKVEIERTVAAPSVFIFPPSDEQLKSGTASVVCLLNNFYPREAKVQWKVDNALQSGNSQESVTEQDSKDSTYSLSSTLTLSKADYEKHKVYACEVTHQGLSSPVTKSFNRGEC",,,,"110 relative, control = 100"

# Source: patent US20180155451A1 (published 2018)
